Experimental data: publication PMC9430756, “AhrC Negatively Regulates Streptococcus mutans Arginine Biosynthesis”

What was measured:
[1] = molecular target: T1, AhrC (Streptococcus mutans UA159) (UniProt Q8DVB1); assay: EMSA; conditions: EMSA: 20 mM Tris-HCl, 100 mM NaCl, 5% glycerol, 30 min on ice, pH not stated; native PAGE in 0.5x TBE at 4 C. Footprinting: DNase I 0.1 Kunitz units/uL, 4 min …
T1 sequence: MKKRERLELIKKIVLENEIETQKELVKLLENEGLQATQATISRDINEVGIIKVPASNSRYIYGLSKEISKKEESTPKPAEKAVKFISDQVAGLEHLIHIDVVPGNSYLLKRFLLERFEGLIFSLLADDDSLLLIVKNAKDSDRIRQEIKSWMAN

AhrC [2] = molecular target: T2, AhrC (Streptococcus mutans UA159, UniProt Q8DVB1 1-154); assay: EMSA; EMSA: 20 mM Tris-HCl, 100 mM NaCl, 5% glycerol, 30 min on ice, pH not stated; native PAGE in 0.5x TBE at 4 C. Footprinting: DNase I 0.1 Kunitz units/uL, 4 min at 37 C; conditions: protein: recombinant; tags: 6xHis (pET28a, NotI/XhoI); chain copies: 6; label: FAM
T2 sequence: T1 sequence

AhrC [3] = molecular target: T2, AhrC; assay: EMSA; conditions: protein: recombinant; tags: 6xHis (pET28a, NotI/XhoI); chain copies: 6; label: FAM

For “AATAATTTTGTTATCATGAGTTAAAGTATCTAGTTATAAACTAGGTACTTTTTACATTTTATTCATTTCTAGCTTGACTTATGAATAAATATACGATAAAATAAACAACATCTTTATAAAGGAAGTGAATAAGT (double strand) [argC promoter (argCp)]”, the binding [1] was “binds”.

B1: argC p1 (dsDNA)
DNA 1: CATTTCTAGCTTGACTTATGAATAAATATACGATAAA
DNA 2: TTTATCGTATATTTATTCATAAGTCAAGCTAGAAATG
B1: binds (AhrC [2]).

B2: argC p1mut (dsDNA)
DNA 1: CATTTCTAGCTTGCCCCCCGACCCCCCATACGATAAA
DNA 2: TTTATCGTATGGGGGGTCGGGGGGCAAGCTAGAAATG
B2: no binding (AhrC [3]).
